From patent publication US20260167693A1 (ANGELES THERAPEUTICS, published 2026)
Numbering of substitutions follows the chain as printed. In names and notes the source's numbering stands.

T1: human CD19 (human, UniProt P15391 20-556)
T1 sequence (looked up): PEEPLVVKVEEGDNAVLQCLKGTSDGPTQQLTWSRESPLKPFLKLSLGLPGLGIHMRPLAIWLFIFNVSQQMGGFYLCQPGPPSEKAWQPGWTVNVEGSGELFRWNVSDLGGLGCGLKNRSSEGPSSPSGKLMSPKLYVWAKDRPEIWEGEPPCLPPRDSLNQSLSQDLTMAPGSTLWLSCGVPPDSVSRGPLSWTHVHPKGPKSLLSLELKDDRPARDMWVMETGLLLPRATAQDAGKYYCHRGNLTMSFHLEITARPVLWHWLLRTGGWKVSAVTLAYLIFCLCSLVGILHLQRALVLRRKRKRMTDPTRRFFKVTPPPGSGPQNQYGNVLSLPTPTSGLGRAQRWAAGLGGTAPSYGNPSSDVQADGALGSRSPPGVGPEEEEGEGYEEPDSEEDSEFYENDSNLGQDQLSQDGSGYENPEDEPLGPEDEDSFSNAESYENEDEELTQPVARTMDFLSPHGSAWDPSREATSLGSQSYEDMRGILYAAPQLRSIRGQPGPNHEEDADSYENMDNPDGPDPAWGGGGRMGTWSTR

T2: CD19-ECD-GGSG-NLuc-AcV5 (human)
T2 construct: also called CD19-GGSG-NLuc-AcV5; Flag-CD19-GGSG-NLuc-AcV5
T2 chain: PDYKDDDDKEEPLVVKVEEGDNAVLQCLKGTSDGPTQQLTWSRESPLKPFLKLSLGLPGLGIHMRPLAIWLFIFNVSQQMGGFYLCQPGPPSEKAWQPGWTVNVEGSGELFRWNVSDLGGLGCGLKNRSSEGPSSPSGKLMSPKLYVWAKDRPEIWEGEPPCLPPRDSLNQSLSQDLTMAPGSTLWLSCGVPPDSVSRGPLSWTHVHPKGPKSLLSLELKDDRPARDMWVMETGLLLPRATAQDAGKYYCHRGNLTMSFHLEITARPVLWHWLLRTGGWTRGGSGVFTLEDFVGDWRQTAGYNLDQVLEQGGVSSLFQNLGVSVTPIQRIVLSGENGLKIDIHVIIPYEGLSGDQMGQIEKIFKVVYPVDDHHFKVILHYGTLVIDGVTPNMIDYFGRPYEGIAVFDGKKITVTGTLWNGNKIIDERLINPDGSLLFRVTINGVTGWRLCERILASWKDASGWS

B1: CD8SP-hu-FMC65-1-vL-[hTCRb-D59C]-F-P2A-SP-hu-FMC65-1-vH-[hTCRa-T45C] (other)
TCR beta: DVVMTQSPSSLSASVGDRVTITCRASQDISKYLNWYQQKPGKAPKLLIYHTSRLHSGVPSRFSGSGSGTDFTLTISSLQPEDFATYYCQQGNTLPYTFGGGTKVEIKEDLKNVFPPEVAVFEPSEAEISHTQKATLVCLATGFYPDHVELSWWVNGKEVHSGVSTCPQPLKEQPALNDSRYCLSSRLRVSATFWQNPRNHFRCQVQFYGLSENDEWTQDRAKPVTQIVSAEAWGRADCGFTSESYQQGVLSATILYEILLGKATLYAVLVSALVLMAMVKRKDSRG
TCR alpha: QVQLQESGPGLVKPSQTLSLTCTVSGVSLPDYGVSWIRQPPGKGLEWIGVIWGSETTYYNSALKSRVLISVDTSKNQVSLKLSSVTAADTAVYYCARHYYYGGSYAMDYWGQGTTVTVSSIQNPDPAVYQLRDSKSSDKSVCLFTDFDSQTNVSQSKDSDVYICDKTVLDMRSMDFKSNSAVAWSNKSDFACANAFNNSIIPEDTFFPSPESSCDVKLVEKSFETDTNLNFQNLSVIGFRILLLKVAGFNLLMTLRLWSS
B2: CD8SP-hu-FMC65-1-vL-[hTCRb-S77C]-F-P2A-SP-hu-FMC65-1-vH-[hTCRa-T45C] (other)
TCR beta: B1 TCR beta with C166D, S184C
TCR alpha: B1 TCR alpha
B3: CD8SP-hu-FMC65-1-vL-[hTCRb-S17C]-F-P2A-SP-hu-FMC65-1-vH-[hTCRa-Y10C] (other)
TCR beta: B1 TCR beta with S124C, C166D
TCR alpha: B1 TCR alpha with Y129C, C164T
B4: CD8SP-hu-FMC65-1-vL-[hTCRb-E15C]-F-P2A-SP-hu-FMC65-1-vH-[hTCRa-S15C] (other)
TCR beta: B1 TCR beta with E122C, C166D
TCR alpha: B1 TCR alpha with S134C, C164T
B5: CD8SP-FMC63-vL-V5-[hTCRb-WT]-F-P2A-SP-FMC63-vH-Myc-[hTCRa-WT]-F-F2A-PAC (080815-F02)[SEQ ID NO:922] (other)
TCR beta: DIQMTQTTSSLSASLGDRVTISCRASQDISKYLNWYQQKPDGTVKLLIYHTSRLHSGVPSRFSGSGSGTDYSLTISNLEQEDIATYFCQQGNTLPYTFGGGTKLEITGKPIPNPLLGLDSTGSGEDLKNVFPPEVAVFEPSEAEISHTQKATLVCLATGFYPDHVELSWWVNGKEVHSGVSTDPQPLKEQPALNDSRYCLSSRLRVSATFWQNPRNHFRCQVQFYGLSENDEWTQDRAKPVTQIVSAEAWGRADCGFTSESYQQGVLSATILYEILLGKATLYAVLVSALVLMAMVKRKDSRG
TCR alpha: EVKLQESGPGLVAPSQSLSVTCTVSGVSLPDYGVSWIRQPPRKGLEWLGVIWGSETTYYNSALKSRLTIIKDNSKSQVFLKMNSLQTDDTAIYYCAKHYYYGGSYAMDYWGQGTSVTVSSEQKLISEEDGSGIQNPDPAVYQLRDSKSSDKSVCLFTDFDSQTNVSQSKDSDVYITDKTVLDMRSMDFKSNSAVAWSNKSDFACANAFNNSIIPEDTFFPSPESSCDVKLVEKSFETDTNLNFQNLSVIGFRILLLKVAGFNLLMTLRLWSS
notes: SIR with wild-type TCR constant chains; Polyprotein PRT 3157
B6: CD8SP-FMC63-vL-V5-[hTCRb-KACIAH]-F-P2A-PAC (other)
TCR beta: B5 TCR beta with E142K, S146A, S181C, F257I, E260A, Q263H
notes: One functional polypeptide unit alone in Jurkat-NFAT-GFP cells; PRT 3148; also called 050216-S08
B7: CD8SP-FMC63-vH-MYC-[TCRα-CSDVP]-F-F2A-BlastR (other)
TCR alpha: B5 TCR alpha with T179C, P222S, E223D, S224V, S225P
notes: One functional polypeptide unit alone in Jurkat-NFAT-GFP cells; PRT 3232; also called 041916-A02

Columns and labels:
human CD19 = target: T1, human CD19; experiment: cell-based or functional assay
CD19-ECD-GGSG-NLuc-AcV5 [1] = target: T2, CD19-ECD-GGSG-NLuc-AcV5; experiment: NLuc binding assay, SIR on Jurkat-NFAT-Luc cells
CD19-ECD-GGSG-NLuc-AcV5 [2] = target: T2, CD19-ECD-GGSG-NLuc-AcV5; experiment: NLuc binding assay, SIR on Jurkat-NFAT-GFP cells
CD19-ECD-GGSG-NLuc-AcV5 [3] = target: T2, CD19-ECD-GGSG-NLuc-AcV5; experiment: NLuc binding assay, single chain unit in Jurkat-NFAT-GFP cells

Binder	NFAT-GFP (%) after co-culture with RAJI cells (human CD19) [%]	other results
B1	1.35	–
B2	0.9	–
B3	1.99	–
B4	2.48	–
B5	–	binding result (CD19-ECD-GGSG-NLuc-AcV5 [1]): no binding; CD19-GGSG-NLuc (RLU) (CD19-ECD-GGSG-NLuc-AcV5 [2]): 768 RLU
B6	–	binding result (CD19-ECD-GGSG-NLuc-AcV5 [3]): no binding
B7	–	binding result (CD19-ECD-GGSG-NLuc-AcV5 [3]): no binding
